The supplement of paper PMC7125110
± gives the standard error. Fewer inactive variants are shown than the library holds.

B1: glmS ribozyme (parent)
chain: AUAAAAGCGCCAGAACUACAGAAAUGUAGUUGACGAGGAGGAGGUUUAUCGAAUUUUCGGCGGAUGCCUCCAAA

Variants of: B1
Test: self-cleavage kobs at 640 uM GlcN6P; higher = faster cleavage; RNA array
Conditions: with glucosamine-6-phosphate
Summary of the method: (§1)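 Over ~14 h at 37 °C, tiles were imaged as glucosamine-6-phosphate (40 μM to 10 mM) in HEPES/KCl/Mg(OAc)2 buffer flowed across sequenced MiSeq chips. The chips carried barcoded ribozyme variants transcribed in situ by E. coli RNA polymerase and tracked with a hybridised Cy3 probe. After normalisation to baseline and to non-cleaving reference variants, one- or two-exponential decay fits of per-tile medians gave kobs. kcat and KM followed from weighted Michaelis–Menten fits across concentrations.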

Variant	self-cleavage kobs at 640 uM GlcN6P [s⁻¹]
A52C C58G	< 1e-05
U55A G63U C70G	6.74e-05 ± 2.6e-05
G43U G62C C67A	< 1e-05
U47A G60C U69C	0.00785 ± 0.0036
U45C A53C	9.37e-05 ± 1.6e-05
A52G G66A	0.000162 ± 3e-05
U45C U47A	0.000335 ± 8.3e-05
C50G C61U C67U	0.000213 ± 4.4e-05
U46A U54G C70A	5.86e-05 ± 2.1e-05
U45C C50A U56C	< 1e-05
C61G G62A	< 1e-05
G51U U55C	< 1e-05
G51C C67G C70U	< 1e-05
C50G G60C C70A	0.000161 ± 5.8e-05
A52G U56G	0.000309 ± 5.9e-05
C50U C67A	6.32e-05 ± 2.1e-05

Variant	self-cleavage kobs at 640 uM GlcN6P [s⁻¹]
U49A G66A	< 1e-05
U45C A52G C70U	4.7e-05 ± 1.6e-05
C61G A64G C71G	0.000141 ± 3.7e-05
U55G G63U U65G	< 1e-05
U45G U46G U55C G63A	< 1e-05
C58G G59U C68G	4.54e-05 ± 1.7e-05
G66C C68U C70U	0.000337 ± 9.2e-05
C50G A52U C70U	0.000121 ± 5e-05
U45A C58A C71U	0.000102 ± 2.9e-05
G44C A52G U54G	< 1e-05
U56C G66C	6.26e-05 ± 2.2e-05
A64C C68A C70G	< 1e-05
A48G A53G C67G	6.02e-05 ± 2.2e-05
C61G C68U U69A	< 1e-05
U45A U49C	< 1e-05
A53U U55C U65A	0.00055 ± 9.7e-05

Variants of: B1
Test: self-cleavage kobs at 10000 uM GlcN6P; higher = faster cleavage; RNA array
Conditions: with glucosamine-6-phosphate
Summary of the method: as §1

Variant	self-cleavage kobs at 10000 uM GlcN6P [s⁻¹]
A52C C58G	< 1e-05
G43U G62C C67A	< 1e-05
U45C A53C	0.000403 ± 0.00014
A52G G66A	0.000481 ± 0.00017
G51U U55C	< 1e-05
A52G U56G	0.0014 ± 0.00025
U45A U49C	< 1e-05
A6G A12C U56G	5.92e-05 ± 1.5e-05
A53U U55C U65A	0.00137 ± 0.00021

Variants of: B1
Test: self-cleavage kobs at 2500 uM GlcN6P; higher = faster cleavage; RNA array
Conditions: with glucosamine-6-phosphate
Summary of the method: as §1

Variant	self-cleavage kobs at 2500 uM GlcN6P [s⁻¹]
G7C U46A A52C	< 1e-05
G7U U31G C61A C70A	< 1e-05
G7C A14C G35C U57G	< 1e-05
G43U G62C C67A	< 1e-05
A6G G32U U45G	< 1e-05
A52G G66A	0.000203 ± 4.6e-05
A6C C8G G66A C70U	< 1e-05
G7A A12U U31G C70A	< 1e-05
A6C G13C G29A U30G G32U A33G C34A C50U	< 1e-05
G7U A53G U57A	< 1e-05
A6U G37U G40U	< 1e-05
U45C U47A	0.000441 ± 0.00018
A6G U31A U49A	< 1e-05
G7C G29A G62U	< 1e-05
U46A U54G C70A	0.000289 ± 7.5e-05
A6U G44A A48U G63A U65C	< 1e-05
C8A C58A A64C	< 1e-05
G7U G9A C67A	< 1e-05
A6U C8U C16U U30C G44U U55A C67G	< 1e-05

Variant	self-cleavage kobs at 2500 uM GlcN6P [s⁻¹]
A6G A14U U54A	0.000117 ± 2.9e-05
C61G G62A	< 1e-05
A6G A36U A48U C50U	< 1e-05
G51C C67G C70U	< 1e-05
C50G G60C C70A	5.41e-05 ± 2.7e-05
C8A G13C A36G U56G C70U	< 1e-05
A52G U56G	0.000536 ± 0.00011
G7U G9C U47A U56G G59U C70A	< 1e-05
G7U C8G U49A	< 1e-05
A6G G40U A52G A53U	< 1e-05
A6C G40C C61U	< 1e-05
A6G C16G U54C C61A	< 1e-05
A6U C8U A52U C67U C71U	< 1e-05
C8A A33C A42G U65G	< 1e-05
A6U C50G U55G A64G C67U	0.000132 ± 3.6e-05
C8A A33C U45C G59A	< 1e-05
A6C G41U C58U C68U	< 1e-05
U45C A52G C70U	6.92e-05 ± 1.3e-05
C8A C16G G38A A64G C68A	< 1e-05

Variant	self-cleavage kobs at 2500 uM GlcN6P [s⁻¹]
A6U A36G U46C A52G C67U	< 1e-05
G7A C8G G9C A15C U47G C71A	< 1e-05
G7U G35U C50U	< 1e-05
G7U G32C G40U U45G	< 1e-05
U55G G63U U65G	< 1e-05
U45G U46G U55C G63A	< 1e-05
A6C A14U C50G C61G C68G C70U	0.000499 ± 0.00017
A6G G40A A48G A53G C67U	< 1e-05
G7U G32A A48G U54A	< 1e-05
G7A G13A U30C C34U C70U	< 1e-05
U45A C58A C71U	0.000293 ± 8.3e-05
G44C A52G U54G	< 1e-05
U56C G66C	8.66e-05 ± 2.4e-05
A64C C68A C70G	< 1e-05
A48G A53G C67G	6.1e-05 ± 2.3e-05
G7C G35C A48C C58U	< 1e-05
A6G A14G G40A	3.86e-05 ± 1.1e-05
A6G A12C U56G	5.25e-05 ± 2.1e-05
A53U U55C U65A	0.000947 ± 0.00018
